Experimental findings from article PMC11773488 are described below.

Assay [1] concerns the target β-arrestin 2 fused to Venus fluorescent protein (UniProt P32121). Put plainly: BRET. The conditions noted are these: HEK293 cells; WKYMVm at x = -5 (highest concentration), 10 min; parent: est. 0.064; read off a plot.
In assay [2] the target is Venus-tagged mini-Gsi (mGsi). In words: BRET. Particulars: HEK293 cells; WKYMVm at x = -5 (highest concentration), 10 min; parent: est. 0.076; read off a plot.
The target in assay [3] is N-terminal FLAG-tagged human formyl-peptide receptor 2 fused C-terminally to Renilla luciferase (FPR2-Rluc8) (human) (UniProt P25090). Put plainly: FRET or BRET; BRET in live HEK293 cells co-transfected with receptor-RLuc8 (donor, 400 ng) and Venus-tagged mGsi, β-arrestin 1 or β-arrestin 2 (acceptor), 4:1 acceptor:donor; 37°C, Hank's balanced salt solution, 5 μM coelenterazine H; increasing WKYMVm, read 10 min after agonist; ratio acceptor:donor minus untreated; Emax by nonlinear regression; pertussis toxin pretreatment had no effect on β-arrestin recruitment.

In assay [4] the target is FPR2 T331A-RLuc8 (human) (UniProt P25090). The assay is described as above.
Assay [5] has as its target FPR2 S326A-RLuc8 (human) (UniProt P25090). The description is as above.
The target in assay [6] is FPR2 S328A-RLuc8 (human) (UniProt P25090). The description is as above.
In assay [7] the target is N-terminal FLAG-tagged human formyl-peptide receptor 2 fused C-terminally to Renilla luciferase (FPR2-Rluc8) (human) (UniProt P25090). In words: FRET or BRET; BRET as a1, in CRISPR-Cas9-edited HEK293 cells without GRK2/3 (ΔGRK2/3); WKYMVm 10 min.
The target is the same in assay [8]. Put plainly: FRET or BRET; BRET as a1, in ΔQ-GRK cells co-transfected with GRK6; WKYMVm 10 min.
The target is the same in assay [9]. In words: FRET or BRET; BRET as a1, in ΔQ-GRK cells co-transfected with GRK2; WKYMVm 10 min.
Assay [10] shares this target. In words: FRET or BRET; BRET as a1, FPR2-RLuc8 with Venus-β-arrestin in Control cells of the GRK-edited HEK293 panel; WKYMVm 10 min.
The target is the same in assay [11]. Put plainly: FRET or BRET; BRET as a1, in ΔQ-GRK cells co-transfected with GRK5; WKYMVm 10 min.
Assay [12] shares this target. Put plainly: FRET or BRET; BRET as a1, in CRISPR-Cas9-edited HEK293 cells without GRK5/6 (ΔGRK5/6); WKYMVm 10 min.
Assay [13] has the same target. In words: FRET or BRET; BRET in live HEK293 cells co-transfected with receptor-RLuc8 (donor, 400 ng) and Venus-tagged mGsi, β-arrestin 1 or β-arrestin 2 (acceptor), 4:1 acceptor:donor; 37°C, Hank's balanced salt solution, 5 μM coelenterazine H; increasing WKYMVm, read 10 min after agonist; ratio acceptor:donor minus untreated; Emax by nonlinear regression; pertussis toxin pretreatment had no effect on β-arrestin recruitment. The source holds these as a separate data set.

Assay [14] deals with FPR2 ΔAC-RLuc8 (human) (UniProt P25090). The assay is described as above.
Assay [15] addresses FPR2 ΔABC with S326 reintroduced, RLuc8 fusion (human) (UniProt P25090). The description is as above.
Assay [16] deals with FPR2 ΔBC-RLuc8 (human) (UniProt P25090). The assay is described as above.
Assay [17] addresses FPR2 ΔABC with S328 (printed once as S329) reintroduced, RLuc8 fusion (human) (UniProt P25090). The assay is described as above.
Assay [18] concerns the target FPR2 ΔAB-RLuc8 (human) (UniProt P25090). The assay is described as above.
The target in assay [19] is FPR2 ΔABC with T331 reintroduced, RLuc8 fusion (human) (UniProt P25090). The assay is described as above.
Assay [20] addresses FPR2 ΔABC-RLuc8 (all C-terminal serine and threonine residues mutated to alanine) (human) (UniProt P25090). Described as above.
Assay [21] deals with N-terminal FLAG-tagged human formyl-peptide receptor 2 fused C-terminally to Renilla luciferase (FPR2-Rluc8) (human) (UniProt P25090). Put plainly: FRET or BRET; BRET as a1, in ΔQ-GRK cells co-transfected with GRK3; WKYMVm 10 min.

For the substance “N-terminal FLAG-tagged human formyl-peptide receptor 2 fused C-terminally to Renilla luciferase (FPR2-Rluc8) (from UniProt P25090) DAC (… to …; R to A of the DRC motif)”, the figures for the response in [1] and in assay [2] were 0.033 N-BRET and 0 N-BRET, respectively.

As to “β-arrestin 2 fused to Venus fluorescent protein (from UniProt P32121 1-409) (natural protein)”, the Emax (BRET) (normalized acceptor:donor ratio) in [3] turned out to be 0.0854; in assay [4] it was 0.0611; in assay [5] it was 0.0605; in assay [6] it was 0.0608; in assay [7], 0.0807; in assay [8], 0.0583. The Emax (BRET) (normalized acceptor:donor ratio) in assay [9] was determined as 0.0987; in assay [10] it was 0.098; in assay [11] it was 0.0971; in [12], 0.0541; in [13] it was 0.0715; in [14], 0.0691. Moreover, the Emax (BRET) (normalized acceptor:donor ratio) in assay [15] was determined as 0.0217; in assay [16], 0.0015; in assay [17] it was 0.0111; in [18], 0.0396; in assay [19] it was 0.0194; in assay [20], 0.0146. Further, in assay [21], the Emax (BRET) (normalized acceptor:donor ratio) was determined as 0.0949.

For the substance “β-arrestin 1 fused to Venus fluorescent protein (from UniProt P49407 1-418) (natural protein)”, the Emax (BRET) (normalized acceptor:donor ratio) in assay [3] amounted to 0.0821; in [4], 0.0667; in assay [5] it was 0.0623; in assay [6], 0.0481; in assay [7] it was 0.0708; in assay [8], 0.0557. Further, the Emax (BRET) (normalized acceptor:donor ratio) in [9] was determined as 0.0822; in assay [10], 0.0931; in assay [11], 0.0884; in assay [12], 0.0299; in [13], 0.0782; in assay [14] it was 0.0638. Also, the Emax (BRET) (normalized acceptor:donor ratio) was 0.00242 in assay [15]; 0.000955 in [16]; -0.00162 in assay [17]; 0.0359 in [18]; -0.000883 in assay [19]; 0.00138 in [20]. For the same substance, the Emax (BRET) (normalized acceptor:donor ratio) in assay [21] was 0.0855.
